# Laboratory results reported in patent US20240084003A1 (SIMCERE ZAIMING PHARMACEUTICAL, published 2024).
# Numbering of substitutions follows the chain as printed.
# T1: monkey CD22 on HEK293T-monkey CD22 cells (monkey)
# T1 construct: full-length entry expressed on stably transfected HEK293T cells
# T1 chain: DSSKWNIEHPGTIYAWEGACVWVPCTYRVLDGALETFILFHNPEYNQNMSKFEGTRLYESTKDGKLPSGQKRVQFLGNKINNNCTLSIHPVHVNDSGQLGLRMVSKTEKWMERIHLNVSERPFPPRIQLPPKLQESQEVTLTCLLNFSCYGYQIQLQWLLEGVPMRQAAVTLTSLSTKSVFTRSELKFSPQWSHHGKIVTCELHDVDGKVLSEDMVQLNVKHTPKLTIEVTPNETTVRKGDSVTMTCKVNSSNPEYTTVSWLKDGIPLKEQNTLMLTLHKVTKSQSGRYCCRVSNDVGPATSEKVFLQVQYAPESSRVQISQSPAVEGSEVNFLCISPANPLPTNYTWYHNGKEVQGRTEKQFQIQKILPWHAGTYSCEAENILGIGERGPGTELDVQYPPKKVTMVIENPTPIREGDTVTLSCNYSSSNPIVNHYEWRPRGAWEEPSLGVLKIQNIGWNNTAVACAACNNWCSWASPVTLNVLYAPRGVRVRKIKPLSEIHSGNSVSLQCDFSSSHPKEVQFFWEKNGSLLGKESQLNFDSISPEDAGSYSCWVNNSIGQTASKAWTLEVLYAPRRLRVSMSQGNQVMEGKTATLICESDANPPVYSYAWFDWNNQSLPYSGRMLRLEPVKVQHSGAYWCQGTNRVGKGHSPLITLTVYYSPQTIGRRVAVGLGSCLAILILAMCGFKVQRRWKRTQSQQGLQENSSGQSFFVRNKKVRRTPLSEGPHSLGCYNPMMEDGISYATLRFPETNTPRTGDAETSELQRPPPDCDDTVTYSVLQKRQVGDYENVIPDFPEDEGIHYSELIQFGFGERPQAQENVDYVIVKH
# B1: F1.120.15 (antibody, human IgG1, kappa, V domains shown)
# VH: QVQLQQSGPELVKPGASVKISCKASGNAFSNSWMNWVKQRPGKGLEWIGRVYSEDGDTQYNGKFRDKATLTADRSTSTAYMQLSSLTSEDSAVYFCARWLIYYGTYGAMDYWGQGTSVTVSS
# VL: DIQMTQTTSSLSASLGDRVTISCRASQDINNYLNWYHQKPDGTVKLLIYFTSRPYSGVPSRFSGSGSGTDYSLTISNLEQEDIATYFCQQGNTLPWTFGGGTKLEIKR
# notes: human-murine chimeric IgG1 kappa
# B2: F1.62.10 (antibody, human IgG1, kappa, V domains shown)
# VH: QVQLQQSGPELVKPGASVKISCKASGYEFSSIWMNWVKQRPGEGLEWIGRIFPGDGEINYNEKFKGKATLTADRSSTTAYMQLSSLTSEDSAVYFCAGWRIYYGTYGAMDYWGQGTSVTVSS
# VL: B1 VL with T7I, N30G, H37Q, F50Y, P54L, Y55H, G68R, E79Q
# notes: as for B1
# B3: F1.172.13 (antibody, human IgG1, kappa, V domains shown)
# VH: QVTLKESGPGILQSSQTLSLTCSFSGFSLSTSGMGVSWIRQPSGKGLEWLAHIYWDDDKRYNPSLKSRLTISKDTSRNQVFLKITSVDTADTATYYCARAPPPNWDEYYFDYWGQGTTLTVSS
# VL: DIQMTQSPASLSASVGETVTITCRASGNIHNSLAWYQQKQGKSPQLLVHNAKTLADGVPSRFSGSGSGTQYSLKINSLQPEDFGSYYCQHFWSTPPFGGGTKLEIKR
# notes: as for B1
# B4: F1.231.15 (antibody, IgG1, V domains shown)
# VH: QVQLQQPGAELVKPGASVKLSCKTSGYTFTIYWMQWVKQRPGRGLEWIGRIDPHSGDTHYNENFTTKVTLTVDETSNTAYMHLSGLTSEDSAVYYCARRDYSYYVLDYWGQGTSVTVSS
# VL: DVVLTQTPLSLPVSLGDQASISCRSSQSLVHINGDTYLHWYLQKPGQSPKLLIYTVFNRFSGVPDRFSGSGSGTDFTLKISRVEAEDLGAYFCSQSTHVPYTFGGGTKLEIKR
# notes: as for B1
# B5: F1.250.16 (antibody, human IgG1, kappa, V domains shown)
# VH: QVQLQQSGAEQVKPGASVKMSCKASGYTFTTYPIEWMKQNHGESLDWIGNIHPYNDDTEYNEKFKGKATLTVEKSSNTVFLELSRLTSDDSAVYYCVRGDYYNSRYWYFDVWGTGTTVTVSS
# VL: DIVMTQSQKFMSTTVGDRVSITCKAGQNVRTAVAWYQQKPGQSPKLLIYSASTRYIGVPERFTGSGSGTDFTLTITNMQSEDLADYFCQQYSSFPLTFGTGTKLELKR
# notes: human-murine chimeric IgG1 kappa; VL name legible
# B6: F1.192.1 (antibody, human IgG1, kappa, V domains shown)
# VH: AVQLQQSGVELVRPGASVKLSCTGSDFNIKEDYIHWVKQRPEQGLEWIGWIDPENGDTEYASKFQGKATITADTSSNTAYLQLSSLTSEDTAVYYCATYGSLDYWGQGTTLTVSS
# VL: DIKMTQSPSSMYAFLGERVTITCKASQGINSFLTWFQQKPGKSPKTLIYRANRLVDGVPSRFSGSGSGQDYSLTISSLEYEDVGIYYCLQYDEFPRTFGGGTKLEIKR
# notes: as for B1
# B7: F1.267.9 (antibody, human IgG1, kappa, V domains shown)
# VH: EVQLQQSGPVLVKPGASVKMSCKASGYTFTDFYMNWAKQSHGKSLEWVGVINPYNGGINYNQKFKGKATLTVDKSSSTAYMEFNSLTSEDSAVYYCARRMEYHAMDYWGQGTSVTVSS
# VL: DIVLTQSPASLAVSLGQRATISCRASESVDNYGFDFIHWYQQKPGQPPKLLIYRASNLESGIPARFSGSGSRPDFTLTINPVETDDVATYYCQQSIKDPWTFGGGTKLEIKR
# notes: as for B5
# B8: F1.200.11 (antibody, human IgG1, kappa, V domains shown)
# VH: QNQLVQSGPELKKPGETVKISCKASGYTFTTAGMQWVQKMPGKGFKWIGWINTLSGEPKYAEDFKGRFAFSLETSATTAYLQISNLKNEDTATYFCARAYYSNLYWYFDVWGTGTTVTVSS
# VL: DIVMTQSQKFMSTTVGDRVTITCKASQNVVTAVAWYQQKPGQSPKVLIYSASNRYSGVPDRFTGSGSGTDFTLTISNMHSEDLANYFCHQYSSYPFTFGSGTKLEIKR
# notes: as for B1
# B9: F1.7.6 (antibody, human IgG1, kappa, V domains shown)
# VH: EIQLQQSGPELVKPGTSVKVSCKASGYDFTRYNMYWVKQSHGKSLEWIGYIDPYNGDTRYNQKFKGKATLTVDKSSSTAYMHLNSLTSEDSAVYYCEAIYYDMEGYALDYWGQGTSVTVSS
# VL: DIVMSQSPSSLAVSVGEKVTMSCKSSQSLLYSNNQKNYLAWYQQKPGQSPKKLIYWASTRESGVPDRLTGSGSGTDFTLTISSVTAEDLAVYYCQQFYSYPWTFGGGTKLEIKR
# notes: as for B5
# B10: F1.224.1 (antibody, human IgG1, kappa, V domains shown)
# VH: EVLLHQSGPELVKPGASVKISCKASGYTFTDFNMDWVRQRHGQSLEWIGDVNPNNGGTIYNQKFKGKATLTVDKSSSTVYMDLRSLTSDDTAVYYCVRLGTSDYGEAWFISWGQGTVVTVSA
# VL: DIVLTQSPASLAVSLGQRATISCRASQSVSTPRYSFMHWYQQKPGQPPKLLIKYASNLESGFPARFTGSGSGTDFTLNIHPVEEEDTAAYYCQQSWAIPWTFGGGTKLEIKR
# notes: as for B5
# B11: F1.105.11 (antibody, human IgG1, kappa, V domains shown)
# VH: EVQLQQSGPVLVKPGASVKMSCKASGYTFSDYFMNWVKQSHGKSLEWIGIINSYSGGTSYNQKFKGKATLTVDKSSSTAYMELNSLTSEDSAVYYCARWMDYWGQGTSVTVSS
# VL: DVQITQSPSYLAASPGETITINCRTSESISKHLAWYQEKPGKTNKLLIYSGSTLQSGIPSRFSGSGSGTDFTLTISSLEPEDFAMYYCQQHNEYPWTFGGGTKLEIKR
# notes: as for B5
# B12: F1.17.1 (antibody, human IgG1, kappa, V domains shown)
# VH: QVQLKESGPGLVAPSQSLSITCTVSGFSLSRYTVHWVRQPPGKGLEWLGMIWGGGSTDYNSALKSRLSISKDNSKSQVFLKMNSLQTDDTAMYYCARPHDFDAGGFAYWGQGTLVTVSA
# VL: QIVLTQSPAILSTSPGEKVTMTCSASSRVNYMYWYQQKPGSSPRLLIYDTSNLASGVPVRFSGSGSGTSYSLTISRMEAEDAATYYCQQWTSYPLTFGAGTKLELKR
# notes: as for B1
# B13: F1.216.2 (antibody, human IgG1, kappa, V domains shown)
# VH: QVQLQQSGPEVVRPGASVKISCKASGYAFSSSWMNWMKQRPGKALEWIGRIYPGDGDTNYSGEFKVKATLTADKSSSTAYMQLSSLTSEDSAVYFCAREGSYYSNPWYFDYWGQGTTLTVSS
# VL: DVLVTQTPLSLPVSLGDQASISCRSSQSIVQSNGDTYLEWYLQKPGQSPKLLIYKVSNRFSGVPDRFSGSGSGTDFTLKISRVEAEDLGVYYCFQGSHVPFTFGSGTKLEIKR
# notes: as for B1
# Biological target: T1, monkey CD22 on HEK293T-monkey CD22 cells
# Test: FACS, HEK293T-monkey CD22 cells
# Protocol: For suspension cell Raji, the medium supernatant was directly centrifuged and discarded, and the cell pellet was washed 2 times with PBS. After counting the cells in the previous step, the cell pellet was resuspended with [PBS+2% (w/w) BSA] blocking solution to 2×10⁶ cells/ml, and added to a 96-well FACS reaction plate at 50 μl/well, and then the chimeric antibody test sample was added at 50 μl/well, and incubated on ice for 2 hours. The mixture was centrifuged and washed 3 times with PBS buffer, Alexa Flour 488-labeled secondary antibody (purchased from Invitrogen, catalog number: A-11013) was added at 50 μl/well, and incubated on ice for 1 hour. The obtained mixture was centrifuged and washed 5 times with PBS, and FACS (FACS Canto™, purchased from BD Company) was used for detection and result analysis. Data analysis was performed by software (CellQuest) to obtain the mean fluorescence density (MFI)of the cells. And then software (GraphPad Prism8) was used for analysis, data fitting, and EC50 value calculation. […] The same method was used to detect the binding of the chimeric antibodies to endogenous CD22-negative cell MoLT4 cells (purchased from ATCC, CRL-1582) and CHO-K1 cells.
# HEK293T-monkey CD22 cells were subjected to FACS detection and data analysis according to the method in Example 5.2.
EC50 [nM],Maximum mean fluorescence intensity [MFI],Binder
0.95,13600,B1
41.1,4330,B2
0.47,19000,B3
12.3,9250,B4
0.31,19700,B5
0.62,16300,B6
1.15,15300,B7
4.32,16200,B8
2.22,9220,B9
0.79,16300,B10
1.3,7530,B11
0.38,17200,B12
0.26,13900,B13
